Numbering of substitutions follows the chain as printed.
Columns and labels:
GST-B2-9 = target: T1, GST-B2-9 (human, UniProt P51587 3189-3418); test: EMSA; 150 mM KCl; EMSA: 10 nM probe, 50 mM Tris-HCl pH 7.5, 100 mM KCl, 2 mM b-ME, 10% glycerol, probe pre-incubated 37 C, gel 4 C (RAD51: +1 mM MgCl2, 2 mM ATP); smFRET: 50 mM Tris-HCl pH 7.9, 100 mM KCl, 20 mM NaCl, 1 mM DTT, 0.1 mg/ml BSA, 9% glycerol, 37 C; conditions: protein: recombinant; tags: GST; label: 32P
T1 sequence: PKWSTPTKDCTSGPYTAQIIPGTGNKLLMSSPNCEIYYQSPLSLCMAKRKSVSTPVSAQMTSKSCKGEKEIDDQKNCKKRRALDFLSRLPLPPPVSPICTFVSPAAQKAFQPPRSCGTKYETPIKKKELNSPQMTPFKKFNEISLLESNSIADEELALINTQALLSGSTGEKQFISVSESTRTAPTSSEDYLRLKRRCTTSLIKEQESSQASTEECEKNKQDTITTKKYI

GST-B2-7 = target: T2, GST-B2-7 (human, UniProt P51587 2438-2824); test: as above; conditions: protein: recombinant; tags: GST; label: 32P
T2 sequence: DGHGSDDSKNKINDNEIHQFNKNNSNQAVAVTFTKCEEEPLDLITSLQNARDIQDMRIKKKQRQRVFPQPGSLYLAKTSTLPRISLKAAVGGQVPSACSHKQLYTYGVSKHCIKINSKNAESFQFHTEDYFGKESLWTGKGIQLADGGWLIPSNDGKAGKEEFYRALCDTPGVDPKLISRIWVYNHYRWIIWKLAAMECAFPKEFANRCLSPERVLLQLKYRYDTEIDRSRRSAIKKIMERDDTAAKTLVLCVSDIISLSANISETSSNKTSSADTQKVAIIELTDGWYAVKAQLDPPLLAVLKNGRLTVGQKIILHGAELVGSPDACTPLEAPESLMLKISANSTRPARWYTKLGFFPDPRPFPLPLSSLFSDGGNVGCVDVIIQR

GST-B2-8 = target: T3, GST-B2-8 (human, UniProt P51587 2780-3197); test: as above; conditions: protein: recombinant; tags: GST; label: 32P
T3 sequence: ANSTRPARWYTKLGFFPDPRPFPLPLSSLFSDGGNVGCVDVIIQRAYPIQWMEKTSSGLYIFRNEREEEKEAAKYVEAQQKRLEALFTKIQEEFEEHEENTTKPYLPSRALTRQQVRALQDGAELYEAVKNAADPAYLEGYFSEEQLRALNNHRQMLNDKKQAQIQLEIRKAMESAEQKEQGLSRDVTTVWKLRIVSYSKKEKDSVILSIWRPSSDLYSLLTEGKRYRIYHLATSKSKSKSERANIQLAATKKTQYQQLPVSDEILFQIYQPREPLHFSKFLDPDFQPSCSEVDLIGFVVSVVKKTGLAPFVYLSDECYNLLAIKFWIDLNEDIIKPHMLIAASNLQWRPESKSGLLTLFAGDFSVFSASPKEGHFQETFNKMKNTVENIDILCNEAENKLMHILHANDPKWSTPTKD

BRCA2OB [1] = target: T4, BRCA2OB (human, UniProt P51587 2665-3197); test: EMSA; 100 mM KCl; EMSA: 10 nM probe, 50 mM Tris-HCl pH 7.5, 100 mM KCl, 2 mM b-ME, 10% glycerol, probe pre-incubated 37 C, gel 4 C (RAD51: +1 mM MgCl2, 2 mM ATP); smFRET: 50 mM Tris-HCl pH 7.9, 100 mM KCl, 20 mM NaCl, 1 mM DTT, 0.1 mg/ml BSA, 9% glycerol, 37 C; conditions: protein: recombinant, tags: N-MBP, C-6xHis, label: 5' 32P
T4 sequence: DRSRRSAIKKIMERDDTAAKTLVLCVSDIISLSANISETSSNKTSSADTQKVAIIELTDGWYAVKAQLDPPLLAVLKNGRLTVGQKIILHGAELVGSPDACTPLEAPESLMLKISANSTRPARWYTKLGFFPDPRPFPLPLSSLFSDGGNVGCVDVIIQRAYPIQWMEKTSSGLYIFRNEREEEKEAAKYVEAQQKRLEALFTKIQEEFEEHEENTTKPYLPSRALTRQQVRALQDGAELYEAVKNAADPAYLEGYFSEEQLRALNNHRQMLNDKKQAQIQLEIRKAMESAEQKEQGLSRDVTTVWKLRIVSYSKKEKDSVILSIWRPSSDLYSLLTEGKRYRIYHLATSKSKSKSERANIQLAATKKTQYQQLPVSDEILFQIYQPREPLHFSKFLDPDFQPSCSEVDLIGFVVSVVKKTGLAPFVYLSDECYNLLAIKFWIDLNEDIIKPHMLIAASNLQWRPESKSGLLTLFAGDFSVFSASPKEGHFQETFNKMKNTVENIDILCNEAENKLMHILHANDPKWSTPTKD

BRCA2OB [2] = target: T4, BRCA2OB; test: smFRET; 0.1 and 1 uM BRCA2OB; EMSA: 10 nM probe, 50 mM Tris-HCl pH 7.5, 100 mM KCl, 2 mM b-ME, 10% glycerol, probe pre-incubated 37 C, gel 4 C (RAD51: +1 mM MgCl2, 2 mM ATP); smFRET: 50 mM Tris-HCl pH 7.9, 100 mM KCl, 20 mM NaCl, 1 mM DTT, 0.1 mg/ml BSA, 9% glycerol, 37 C; conditions: protein: recombinant, tags: N-MBP, C-6xHis, label: 3' Cy3, stem 5' Cy5, 3' biotin
BRCA2OB [3] = target: T4, BRCA2OB; test: smFRET; 1 uM BRCA2OB; EMSA: 10 nM probe, 50 mM Tris-HCl pH 7.5, 100 mM KCl, 2 mM b-ME, 10% glycerol, probe pre-incubated 37 C, gel 4 C (RAD51: +1 mM MgCl2, 2 mM ATP); smFRET: 50 mM Tris-HCl pH 7.9, 100 mM KCl, 20 mM NaCl, 1 mM DTT, 0.1 mg/ml BSA, 9% glycerol, 37 C; conditions: protein: recombinant; tags: N-MBP, C-6xHis; label: 3' Cy3; stem 5' Cy5, 3' biotin
POT1OB = target: T5, POT1OB (human, UniProt Q9NUX5 10-278); test: EMSA; 100 mM KCl; EMSA: 10 nM probe, 50 mM Tris-HCl pH 7.5, 100 mM KCl, 2 mM b-ME, 10% glycerol, probe pre-incubated 37 C, gel 4 C (RAD51: +1 mM MgCl2, 2 mM ATP); smFRET: 50 mM Tris-HCl pH 7.9, 100 mM KCl, 20 mM NaCl, 1 mM DTT, 0.1 mg/ml BSA, 9% glycerol, 37 C; conditions: protein: recombinant; tags: N-MBP, C-6xHis; label: 5' 32P; intramolecular G4
T5 sequence: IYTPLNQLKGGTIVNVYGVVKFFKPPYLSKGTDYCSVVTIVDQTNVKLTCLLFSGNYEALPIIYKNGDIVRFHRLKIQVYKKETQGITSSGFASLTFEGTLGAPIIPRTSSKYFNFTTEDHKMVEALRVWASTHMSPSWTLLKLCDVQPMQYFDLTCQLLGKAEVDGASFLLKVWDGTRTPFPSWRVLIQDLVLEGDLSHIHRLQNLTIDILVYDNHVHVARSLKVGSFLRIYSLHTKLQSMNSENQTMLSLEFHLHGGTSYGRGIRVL

BRCA2OB [4] = target: T4, BRCA2OB; test: EMSA; 100 mM KCl; rough estimate, max protein 1 uM; EMSA: 10 nM probe, 50 mM Tris-HCl pH 7.5, 100 mM KCl, 2 mM b-ME, 10% glycerol, probe pre-incubated 37 C, gel 4 C (RAD51: +1 mM MgCl2, 2 mM ATP); smFRET: 50 mM Tris-HCl pH 7.9, 100 mM KCl, 20 mM NaCl, 1 mM DTT, 0.1 mg/ml BSA, 9% glycerol, 37 C; conditions: protein: recombinant; tags: N-MBP, C-6xHis; label: 5' 32P; intramolecular G4
BRCA2OB [5] = target: T4, BRCA2OB; test: EMSA; 100 mM KCl; EMSA: 10 nM probe, 50 mM Tris-HCl pH 7.5, 100 mM KCl, 2 mM b-ME, 10% glycerol, probe pre-incubated 37 C, gel 4 C (RAD51: +1 mM MgCl2, 2 mM ATP); smFRET: 50 mM Tris-HCl pH 7.9, 100 mM KCl, 20 mM NaCl, 1 mM DTT, 0.1 mg/ml BSA, 9% glycerol, 37 C; conditions: protein: recombinant; tags: N-MBP, C-6xHis; label: 5' 32P; intramolecular G4
BRCA2OB [6] = target: T4, BRCA2OB; test: EMSA; EMSA: 10 nM probe, 50 mM Tris-HCl pH 7.5, 100 mM KCl, 2 mM b-ME, 10% glycerol, probe pre-incubated 37 C, gel 4 C (RAD51: +1 mM MgCl2, 2 mM ATP); smFRET: 50 mM Tris-HCl pH 7.9, 100 mM KCl, 20 mM NaCl, 1 mM DTT, 0.1 mg/ml BSA, 9% glycerol, 37 C; conditions: protein: recombinant; tags: N-MBP, C-6xHis; label: 5' 32P
[7] = 29 bp stem with 3' G4 overhang 30 nt

B1: telomeric G-rich strand (40 nt) (ssDNA)
DNA: GCCCGCGGTTAGGGTTAGGGTTAGGGTTAGGGGTGAATTC
binding result (GST-B2-9): no binding | binding result (GST-B2-7): no binding | binding result (GST-B2-8): binds

B2: TelG5:TelC5 (dsDNA)
DNA 1: GGTTAGGGTTAGGGTTAGGGTTAGGGTTAG
DNA 2: CTAACCCTAACCCTAACCCTAACCCTAACC
binding result (BRCA2OB [1]; blunt): no binding

B3: TelG5 smFRET (mixed)
DNA 1: GCGTGGCACCGGTAATAGGAGATAGGAGAGGTTAGGGTTAGGGTTAGGGTTAGGGTTAG
DNA 2: TCTCCTATCTCCTATTACCGGTGCCACGC
modifications: 3' amino; stem 5' amino
binding result (BRCA2OB [2]; [7]): binds

B4: TelG5TTT smFRET (mixed)
DNA 1: B3 DNA 1 with A34T, A40T, A46T, A52T, A58T
DNA 2: TCTCCTATCTCCTATTACCGGTGCCACGC
modifications: 3' amino; stem 5' amino
binding result (BRCA2OB [2]; [7]): binds

B5: TelG5CTA smFRET (mixed)
DNA 1: B3 DNA 1 with T32C, T38C, T44C, T50C, T56C
DNA 2: TCTCCTATCTCCTATTACCGGTGCCACGC
modifications: 3' amino; stem 5' amino
binding result (BRCA2OB [3]): no binding

B6: TelG5T2G4 (structured_DNA)
DNA: GGTTGGGGTTGGGGTTGGGGTTGGGGTTGG
binding result (POT1OB): no binding | Kd (BRCA2OB [4]): 1.4 µM | binding signal (BRCA2OB [5]): ~3 fold vs TelG5

B7: TelG5TT smFRET (mixed)
DNA 1: GCGTGGCACCGGTAATAGGAGATAGGAGAGGTTTGGGTTGGGTTGGGTTGGGTTTG
DNA 2: TCTCCTATCTCCTATTACCGGTGCCACGC
modifications: 3' amino; stem 5' amino
binding result (BRCA2OB [2]; 29 bp stem with 3' G4 overhang 27 nt): binds

B8: telomeric C-rich strand (40 nt) (ssDNA)
DNA: GAATTCACCCCTAACCCTAACCCTAACCCTAACCGCGGGC
binding result (GST-B2-9): no binding | binding result (GST-B2-7): no binding | binding result (GST-B2-8): no binding

B9: TelG6 (structured_DNA)
DNA: GGTTAGGGTTAGGGTTAGGGTTAGGGTTAGGGTTAG
binding result (BRCA2OB [1]; intramolecular G4): binds

B10: TelG5GAG (ssDNA)
DNA: AGTTAGAGTTAGAGTTAGAGTTAGAGTTAG
binding result (BRCA2OB [1]; unfolded): no binding

B11: TelG-CTA (structured_DNA)
DNA: GCTAGGGCTAGGGCTAGGGCTAGGGCTAG
binding result (BRCA2OB [6]): no binding

B12: TelG3 (ssDNA)
DNA: GGTTAGGGTTAGGGTTAG
binding result (BRCA2OB [1]): no binding

B13: TelC5 (ssDNA)
DNA: B2 DNA 2
binding result (BRCA2OB [1]): no binding

Reference: publication PMC9192595, “Dynamic interaction of BRCA2 with telomeric G-quadruplexes underlies telomere replication homeostasis”
